Reference: the RNAGym collection of RNA variant scans (doi:10.1073/pnas.2313332121)

B1: TPR t1 (parent)
chain: GACCAAUCUGCCCUCAGAGCUCGAGAACAUCUUCGGAUGCAGAGGAGGCAGGCUUCGGUGGCGCGAUAGCGCCAACGUCCUCAACCUCCAAUGCAUCCCACCACAUGAUGAUGCCUGAAGAGCCUUGGUUUUUUG

Variants of: B1
Test: polymerase ribozyme fitness, log enrichment relative to wild type (log ratio); higher = more active; in vitro selection for triplet polymerase activity
Outline: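 One round of in vitro selection, in triplicate, was applied to PCR-built, transcribed mutant libraries of each subunit of a heterodimeric triplet polymerase ribozyme. The steps were annealing with a biotinylated primer, partner subunit and triplets, incubation frozen at −7 °C, gel excision of extended constructs, streptavidin-bead capture and RT-PCR. Fitness is the logarithm, base 2, of genotype enrichment over wild-type enrichment from inverse-variance-weighted replicate averages of Illumina-sequenced inputs and outputs, keeping genotypes with ≥10 input reads and ≥1 read per output.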

Compared with GACCAAUCUGCCCUCAGAGCUCGAGAACAUCUUCGGAGGCAGAGGAGGCAGGCUUCGGUGUCGCGAUAGCGCCAACGUCCUCAACCUCCAAUGCAUCCCACCACAUGAUGAUGCCCGAAGAGCCUUGGUUUUUUG [U38G G61U U116C], GACCAAUCUGCCCUCAGAGUUCGAGAACAUCUUCGGAUGCAGAGGAGGCAGGCUUCGGUGGCGCGAUAUGGCCAACGUCCUCAACCUCCAAUGAAUCCCACCACAUGAUGAUGCCUGAAGAGCCUUGGUUUUUUG [C20U G69U C70G C94A] is lower in “polymerase ribozyme fitness (log ratio)” value: -1.78 for the first, -3.15 for the second.

Going from GACCAAUCUGCCCUCGGAGCUCGAGAACAUCUUCGGAUGCAGAGGAGACAGGCUUCGGUGGCGCGAUAGCGCCAACGUCCUCAACCUCCAAUGCAUCCCACCACAUGAUAAUGCCUGAAGAGCCUUGGUUUUUUG [A16G G48A G110A] to GACCAAUCUGCCCUCAGAGCUCGAGAACAUCUUCGGAUGCAGAAGAGGCAGGCUUCGGUGGCGCGAUAGUGCCAACGUCCUCAACCUCAAAUGCAUCCCUCCACAUGAUGAUGCCUGAAGAGCCUUGGUUUUCUG [G44A C70U C89A A100U U133C], the “polymerase ribozyme fitness (log ratio)” value falls from -2.05 to -3.92.

Going from GACCAAUCUGCCCUCAGAGCUCGAGAACAUCUUCGGAUGCAGAGGAGGCAGGCUGUGGUGGCGCGAUAGCGCCAACGUCCUCAACCUGCAAUGCAUCCCACCACAUGAUGAUGCCUGAAGAGCCUUGGUUUUUUG [U55G C56U C88G] to GACCAAUCUGGCCUCAGAGCUCGAGAACAUCUUCGGAGGCAGAGGAGGCAGGCUUCGGUGGCGCGAUAGCGCCAACGUUCUCAACCUCCAAUGCAUCCCACCACAUGAUGAUGCCUGAAGAGCCUUGGUUUUUUG [C11G U38G C79U], the “polymerase ribozyme fitness (log ratio)” value rises from -2.34 to -1.02.

GACCAAUCUGCCCUCAGAGCUCGAGAACAUCUUCGGAUGCAGAGGAGGCAGUCUUCGGUGGCGCGAUAGCGCCAACGUCGUCAACCUCCAAUGCAUCCCACCACAUGAUGAUGCCUGAAGAGCCUUGGUUUUUUG [G52U C80G] and GACCAAUCUGCCCUCAGAGCUCGAGAACAUCUUCGGAUGCAGAGGAGGCAGGCUUCGGUGGCGUGAUAGCGCCAACGUCCUCAACCUCUAAUGCAUCCCACCACAUGAUGAUGCCUCAAGAGCCUUGGUUUUUUG [C64U C89U G117C] are within 0.2 log units of each other in “polymerase ribozyme fitness (log ratio)” value: -4.76 for the first, -4.79 for the second.

First: GACCAAUCUGCCCUCAGAGCUCGAGAACAUCUUCGGAUGCAGAGGAGGCAGGCUUCGGUGGAGCGAUAGCGCCAACGUCCUCAACCACCAAUGCAUCCCCCCACAUGAUGAUGCAUGAAGAGCCUUGGUUUUUUG [C62A U87A A100C C115A]
Second: GACCAAUCUGCCCUCAGAGCUCGAGAACAUCUACGGAUGCAGAGGAGGCAGGCUUCGGUGGCGCGAUAGCGCCAACGUCCUCAACCUCCAAUGCAUCCCACCACAUGAUGAUGCCUGAAGAGCCUUCGUUUUUUG [U33A G127C]
The “polymerase ribozyme fitness (log ratio)” value of the first is higher: -2.71 for the first, -4.76 for the second.

Compared with GACCAAUCUGCCCUCAGAGCUCGAGAACAUCUUCGGAUGCAGAGGAGGCAGGCUUCGGUGGCUCGAUAGCGCCAACGUCCUCAACCUCCAAUGCAUCCCACCACAUGAUGAUGCCUGAACAGCCUUGGUUUUUUG [G63U G120C], GACCAAUCUGCCCUCAGAGCUCGAGAACAUCUUCGGCUGCAGAGGAGGCAGGCUUCGGUGGCGCGAUAGCGCCAACGUCCUCAACCUCCAAUGCGUCCCACCACAUGAUGAUGCCUGAAGAGCCUUGGUUUUUUG [A37C A95G] is lower in “polymerase ribozyme fitness (log ratio)” value: 0.0622 for the first, -0.966 for the second.

Compared with GACCAAUCUGCCCUCAGAGCUCGAGAACUUCUUCGGAUGCAGAGGAGGCAGGCUUCGGUGGCGCGAUAUCGCCAACGUCCCCAACCUCCAAUGCAUCCCUCCACAUGAUGAUGCCUGAAGAGCAUUGGUUUUUUG [A29U G69U U81C A100U C124A], GACCAAUCUGCCCUCAGAGCUCGAGAACAUCUUCGGAUGCAGAGGAGGCAGGCUUCGGUGGCGCGAUAGCGCCAACGUCCUCAACCUCCAAUGCAUCCCAGCACAUGAUGAUGCCUGAAAACCCUUGGUUUUUUG [C101G G120A G122C] is lower in “polymerase ribozyme fitness (log ratio)” value: 0.115 for the first, -2.36 for the second.

Going from GACCAAUCUGCCCUCAGAGCUCGAGAACAUCUUCGGAUGCAGAGGAGGCAGGCUUCGGUGGCGCGAUAGCGCCAACGUCCUCAACCUCCAAUGCAUACCACCACAUGAUGAUGCCUGAAGAGCCUUGGAUUUUUG [C97A U129A] to GACCAAUCUGCCCUCAGACCUCGAGAACAUCUUCGGAUGCAGAGGAGGAUGGCUUCGGUGGCGCGAUAUCGCCAACGUCCUCAACCUCUAAUGCAUCCCACCACAAGAUGAUGCCUGAAGAGGCUUGGUUUAGUG [G19C C49A A50U G69U C89U U106A C123G U132A U133G], the “polymerase ribozyme fitness (log ratio)” value rises from -4.83 to -1.46.

Going from GACCAAUCUGCCCUCAGAGCUCGAGAACAUCUUCGGAUGGAGAGUAGGCAGGCUUCGGUGGCGCGAUAGCGCCAACGUCCUCAACCUGCAAAGCAUCCCACCACAUGAUGAUGCCUGAAGAGCCUUGGUUUUUUG [C40G G45U C88G U92A] to GACCAAUCUGCCCUCAGAGCUCGAGAACAUCUUCGGAUGCAGAGGAGGCAGGCUUCGGUGGCGCGCUAGCGCCAACGUCCUCAACCUCCAAAGCAUCCCACCACAUGAUGAUGCCUGAAGAGCCUUGGUUUUUUG [A66C U92A], the “polymerase ribozyme fitness (log ratio)” value falls from -4.08 to -6.51.

Going from GACCAAUCUGCCCUCAGAGCUCGAGAACAUCUUCGGAUGCAGAGGAGGCCGGCUUCGGUGUCGCGAUAGCGCCAACGUACUCAACCUCCAAUGCAUCCCACCACAUGAUGAUGCCUGAAGAGCCUUGGUUUUUUG [A50C G61U C79A] to GACCAAUCCGCCCUCAGAUCUCGAGAACAUCUUCGGAUGCAGAGGAGGCAGGCUUCGGUGGCGCGAUAGUGCCAACGUCCUCAACCUCCAAUGCAUCCCACCACAUGAUGAUGCCUGAAGAGCCUUGGUUUUUUG [U9C G19U C70U], the “polymerase ribozyme fitness (log ratio)” value falls from -2.63 to -3.94.

In the case of GACCGAUCUGCCCUCAGUGCUCGAGAAUAUCUUCGGAUGCAGAGGAGGCAGGCUUCGGUGGCGCGAUAGCGCCAACGUCCUCAACCUCCAAUGCAUCCCACCACAUGAUGAUGCCUGAAGAGCCUUGGUUUUUUG [A5G A18U C28U], the “polymerase ribozyme fitness (log ratio)” value is reported as -4.63.
